Assay results: publication PMC3702382 (Biochemistry, 2013)

Biological target: the molecule itself
Assay: TOXCAT

Protein	CAT activity, % of WT
NRASLALTLLLLAILVWLNYSLWFGILIN (domain or fragment) [FtsB transmembrane domain TOXCAT construct, Gln 16 to Asn]	67%
NRASLALTLLLLAILVWLMYSLWFGILIN (domain or fragment) [FtsB transmembrane domain TOXCAT construct, Gln 16 to Met]	22 % of WT
